# Literature values in PMC8553002 (Journal of Mass Spectrometry and Advances in the Clinical …, 2020).
# Conditions: insulin degraded by the liver, to a minor extent, kidneys
substance,measurement,value
Insulin: hormone released with C-peptide from proinsulin in equimolar amounts,half-life,3 to 5 min
